Data from publication PMC11190292, “Hetero-oligomerization of TDP-43 carboxy-terminal fragments with cellular proteins contributes to proteotoxicity” (Communications Biology, 2024).

Biological target: the molecule itself
Assay: fluorescence correlation spectroscopy (FCS); soluble supernatant of transfected Neuro2a cell lysate (50 mM Hepes-KOH pH 7.5, 150 mM NaCl, 1% Nonidet P-40); counts per particle (CPP) against GFP monomers as read-out of homo-oligomerisation, diffusion time as read-out of size

B1: GFP-tagged TDP-43 carboxy-terminal fragment 233-414 (C233) (domain or fragment, human, UniProt Q13148 233-414, looked up)
chain: TFADDQIAQSLCGEDLIIKGISVHISNAEPKHNSNRQLERSGRFGGNPGGFGNQGGFGNSRGGGAGLGNNQGSNMGGGMNFGAFSINPAMMAAAQAALQSSWGMMGMLASQQNQSGPSGNNQNQGNMQREPNQAFGSGNNSYSGSNSGAAIGWGSASNAGSGSGFNGGFGSSMDSKSSGWGM
notes: Cloned into pmeGFP-C1 (HindIII/BamHI); also called G-C233; GFP-C233; source: Neuro2a, transfected, in lysate; not shown: GFP (monomeric enhanced GFP, A206K), N-terminal, kept
counts per particle (CPP) relative to GFP monomers: ~4 fold
